Substitutions are numbered along the chain they refer to.
T1: recombinant human MOG protein (human, UniProt Q16653 30-154, limits assumed)
T1 construct: Bought recombinant protein; also called HMOG
T1 sequence (looked up): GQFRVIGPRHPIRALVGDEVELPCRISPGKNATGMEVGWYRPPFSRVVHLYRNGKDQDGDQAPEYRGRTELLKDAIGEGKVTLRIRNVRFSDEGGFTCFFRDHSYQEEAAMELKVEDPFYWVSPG

T2: recombinant murine MOG protein (murine, UniProt Q61885 29-156, limits assumed)
T2 construct: Bought recombinant protein; also called MMOG
T2 sequence (looked up): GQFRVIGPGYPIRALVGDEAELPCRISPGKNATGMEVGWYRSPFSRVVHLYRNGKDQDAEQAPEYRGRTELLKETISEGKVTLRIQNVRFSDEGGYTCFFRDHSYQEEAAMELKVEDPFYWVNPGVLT

B1: anti-MOG MO3J-43 antibody (scFv, V domains shown)
VH: EVQLVESGGGLVKPGGSLRLSCAASGFTFSDYYMSWIRQAPGKGLEWVSYISSSGNTIYYADSVKGRFTISRDNAKNSLYLQMNSLRAEDTAVYYCAKDSPVPTVWGQGTLVTVSS
VL: QSVVTQPPSVSGAPGQRVSISCTGGSSNIGADYDVHWYQQLPGTAPKLLIYGNNNRPSGVPDRFSGSKSGTSASLAISGLQPEDEAVYYCQSYDSGLRSSVFGGGTKLTVL
B2: anti-MOG MO3I-69 antibody (scFv, V domains shown)
VH: DQVQLVQSGAEVKPGASVKVSCKASGYTFTYYYLHWVRQAPGQGLEWMGWINPNSGATIFAQKFQGRVTLTRDTSISTAYLDLSRLRSDDTAVYYCARASMAYQYHSDVDYWGLGTLVTVSS
VL: QSVLTQPPSVSGAPGQRVTISCTGSSSNIGAGYDVHWYQQLPGTAPKLLIYGNSNRPSGVPDRFSGSKSGTSASLAITGLQAEDEADYYCQSYDSSLVVFGGGTKLTVL
B3: anti-MOG MO3J-40 antibody (scFv, V domains shown)
VH: EVQLVESGAEVKKPGESLKISCKGSGYTFTSNWIGWVRQMPGKGLEWMGIIYPGDSDTRYSPSFQGQGTISADKSISTAYLQWSSLRASDTAMYYCARASIAVRPHIDYWGQGTLVTVSS
VL: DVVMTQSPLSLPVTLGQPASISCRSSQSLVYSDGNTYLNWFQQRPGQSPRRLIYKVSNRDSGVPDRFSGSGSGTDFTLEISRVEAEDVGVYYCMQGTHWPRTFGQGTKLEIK
B4: anti-MOG MO3J-26 antibody (scFv, V domains shown)
VH: QVQLVQSGAEVKKPGSSVKVSCKASGGTFSTYTLSWVRQAPGKGLEWMGGFDPEDGETIYAQKFQGRVTMTEDTSTDTAYLELSSLRSDDTAVYYCAADEFWGPGTLVTVSS
VL: QSVLTQPPSVSAAPGQTVTISCSGSSSNIGNNYVSWYQQLPGTAPKLLIYDNNKRPSGIPDRFSGSKSGTSATLGITGLQTGDEADYYCGTWDSSLSAVVFGGGTKLTVL
B5: anti-MOG MO3J-51 antibody (scFv, V domains shown)
VH: EVQLVQSGAEVKKPGASVKVSCKASGYTFTSYGISWVRQAPGQGLEWMGWISAYNGNTNYAQKLQGRVTMTTDTSTSTAYMELRSLGSDDTAVYYCARNMGCSSTSCFVSWFDPWGQGTLVTVSS
VL: B4 VL with Q16R, T17K, S35A, D51E, D61G, G69A, S94N, V99W
B6: anti-MOG MO3J-38 antibody (scFv, V domains shown)
VH: QVQLVQSGPEVRKPGASVKVSCRASGYTFTSNDINWVRQAAGQGLEYLGWLHPKSGGTGYAQKFQGRVTMTRDTSISTAYLELSNLTSDDTAVYYCARVSFDEVIDFWGQGTLVTVSS
VL: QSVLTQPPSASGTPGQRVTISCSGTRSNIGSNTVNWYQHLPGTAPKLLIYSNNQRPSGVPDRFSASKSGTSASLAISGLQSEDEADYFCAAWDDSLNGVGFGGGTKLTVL
B7: anti-MOG MO3J-52 antibody (scFv, V domains shown)
VH: QMQLVQSGAEVKKPGSSVKVSCKASGGTFSSYAISWVRQAPGQGLEWMGGIIPIFGTANYAQKFQGRVTITADESTSTAYMELSSLRSEDTAVYYCARAREGLLVNYYGMDVWGQGTLVTVSS
VL: DIQMTQSPSTLSASVGDRVTTTCRASQGISNYLAWFQQKPGKAPKSLIYAASSLQSGVPSRFSGGGSGTDFTLTINSLQPEDFATYYCLHDYNYPTFGQGTKVEIK
B8: anti-MOG MO3I-30 antibody (scFv, V domains shown)
VH: EVQLLESGGGLVQPGGSLRLSCVASGFTFRSYWMHWVRQDPGEGLVWVSRVSGDGSSTNYADSVKGRFVISRDNAKDTLYLQMYSLRGEDTAVYYCLRGNDGYGNFDYWGQGTTVTVSS
VL: DVVMTQSPLSLPVTLGQPASISCRPSQSLVYSDGNTYLNWFQQRPGQSPRRLIYKVSNRDYVVPDRFSGSGSGTDFTLKISRVEAEDVGVYYCMQGTHWPLTFGGGTKVEIK
B9: anti-MOG MO3J-37 antibody (scFv, V domains shown)
VH: EVQLVESGGGLVQPGRSLRLSCAASGFTFDDYAMHWVRQAPGKGLEWVSGISWNSGSIGYADSVKGRFTISRDNAKNSLYLQMNSLRAEDTALYYCAKDMRAVAGTEGAFDIWGQGTMVTVSS
VL: QSVVTQPPSMSAAPGQKVTISCSGSSSNIGNNYVSWYQQLPGTAPKLLIYENNKRPSGISDRFSGSKSGTSATLGITGLQTGDEADYYCATGDSGMTLVFGGGTKLTVL
B10: anti-MOG MO3I-57 antibody (scFv, V domains shown)
VH: QVQLVQSGAEVKKPGASVKVSCKASGYTFSSYGISWVRQAPGQGLEWMGWISANTGNTDYAERLQGRVTMTTDTSTTTAYMELRSLRSDDTAVYYCARGAPNGYAVDYWGQGTLVTVSS
VL: QSVLTQPPSASGAPGQRVSISCSGSSSNIGTNHVYWYQQFTGMAPKLIIDTNNQRPPGVPARFSGSKSGTSASLAISGLRSEDESDYYCLTWDDGLYDWVFGGGTKLTVL
B11: anti-MOG MO3I-56 antibody (scFv, V domains shown)
VH: QVQLVESGGGVVQPGSSLRLSCTASGFKFDDYAMHWVRQAPGKGLEWVSGISWNSGSIGYADSVKGRFTISRDNAKNSLYLQMNSLRAEDTASYYCAKSLPHYYDSPPYGMDVWGQGTLVTVSS
VL: DIQLTQSPSSLSASVGDRVTITCRASQGISSALAWYQQKPGKAPKLLIYDASSLESGVPSRFSGSGSGTDFTLTISSLQPEDFATYYCQHRGTFGGGTKVDIK
B12: anti-MOG MO3J-44 antibody (scFv, V domains shown)
VH: QVQLVQSGAEVRKPGASVKISCQISGYNFISYTIQWVRQAPGQRPEWMGWINSGNGNTKYSQKFQGRVTFTRDTSTSTAYMELSSLRSEDTAVYYCARSGIGPWGQGTLVTVSS
VL: EIVLTQPPDLQSVTPKKKVTITCRASQSIGNSLHWCQQKPDQSPKLLIKYASQSISGVPSRFSGSGSGTDFTLTINSLEAEDAATYYCHQSSSLPFTFGPGTKVDIK
B13: anti-MOG MO3I-60 antibody (scFv, V domains shown)
VH: EVQLVESGGGLVKPGGSLGLSCAASGFTFTNAWGHWVRQAPGKGLEWVGRIKSKTDGGTTDYAAPVKDRFSISRDDSKNTLYLQMNSPTTEDTAVYYCATENGMDIVTTFDSWGQGTLVTVSS
VL: AIRMTQSPSSLSASVGDRVTITCRASQSIGSYLSWYRQKPGKAPKLLIYDSSTLQSGVASRFSGSGSGTDFTLTISALQPEDFATYYCHQSYRTPLSFGGGTKVEIK
B14: anti-MOG MO3I-33 antibody (scFv, V domains shown)
VH: DQVQLVQSGAEVKPGATVKISCKVSGYTFTDYYMHWVQQAPGKGLEWMGLVDPEDGETIYAEKFQGRVTITADTSTDTAYMELSSLRSEDTAVYYCATSYHGTSGFDYWGQGTLVTVSS
VL: QSVVTQPPSVSGAPGQRVTIACTGSNSDIGAGHDVHWYQQFPRTAPKLIIFGNTNRPSGVPDRFSGSKSGTSASLVITGLQADDEADYHCQSYDNNLSGPIFGGGTKLTVL
B15: anti-MOG MO4H-106 antibody (scFv, V domains shown)
VH: QVQLVQSGAEVKKPGASVKVSCKASGYTFTTYNIHWMRQAPGQSLEWMGWISTGNGDTEYSQKLQGSVTFTRDTSASTVYMDLNSLTPGDTAVYSCARESLFVSSWYADYWGQGTLVTVSS
VL: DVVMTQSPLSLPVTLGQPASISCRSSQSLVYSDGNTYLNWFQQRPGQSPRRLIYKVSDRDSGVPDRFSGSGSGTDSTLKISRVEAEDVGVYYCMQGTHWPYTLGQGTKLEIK
B16: anti-MOG MO3I-34 antibody (scFv, V domains shown)
VH: B5 VH with G87R
VL: QSVLTQPPSVSAAPGQKVTISCSGSRSNIGSNYVSWYQQLPGTAPKLLIYDNTRRPSGIPDRFYGSKSGTSATLDITGLQTGDEADYHCATWDSSLSALLFGGGTKVTVL
B17: anti-MOG MO3I-63 antibody (scFv, V domains shown)
VH: QVQLVQSGAEVKTPGASVKISCKASGYAFTSYAMHWVRAPGQGLEWMGWINAANANTKYSQRFQGRVTITRDTSASTAYMELNSLRSEDTAVYYCASSEDISRSNYYNYYMDVWGKGTTVTVSS
VL: DIVMTQSPSSLSASVGDRVTITCRASQTITTSLAWFQHRPGKAPKLLIYSASSLQSGVPSRFSGSGSGTDFTLTISSLQPEDFATYSCQQTYSAPPTFGGGTKVEIK
B18: anti-MOG MO4H-118 antibody (scFv, V domains shown)
VH: EVQLVQSGAEVKKPGASVKVSCKVSGYTLTELSMHWVRQAPGKGLEWMGGFDPEDGETIYAQKFQGRVTMTEDTSTDTAYMELSSLRSEDTAVYYCATIGPKVAAHTYYFDYWGQGTLVTVSS
VL: DIQLTQSPSSLSASVGDRVTITCRASQTIVTYLNWYQQKPGKAPNLLITDASSLQSGVPSRFSGTESGTDFTLTISSLQPEDFGSYYCQSYMNPITFGQGTRLEIN

Molecular target: T1, recombinant human MOG protein
Assay: phage-scFv ELISA on coated recombinant human MOG (0.5 µg/well), anti-M13 HRP, OD450 over BSA background
Protocol: (§1) The binding characteristics of the scFvs expressed on the surface of the phages isolated during the screening were determined using an ELISA assay using the recombinant MOG protein (R&D system). Along with the selected clones, phage-scFv-8-18C5 is expressed to serve as a positive control for ELISA. Briefly, phage-scFv were produced in the form of clones isolated on a 96-well plate in 800 μl of 2YT/ampicillin/glucose cultures infected with the helper phage M13K07 (as described previously). The phages produced overnight at 26° C. were then recovered in the supernatants after 30 minutes of centrifugation at 3000 g. These supernatants were directly diluted 1/2 in PBS/4% BSA/0.1% Tween 20 and tested on Maxisorp immunoplates previously coated with 0.5 μg of human or murine MOG or PBS (background control (bdf) in BSA)/well and blocked with 4% BSA in PBS. After incubation for 2 hours at 37° C., the wells were washed 3 times with PBS/0.1% Tween-20 and bound phages-scfv were detected with anti-M13 HRP antibody (GE Healthcare). The plate is read at 450 nm (OD) on a plate reader (TECAN). The results are expressed as a ratio: OD on target/OD bdf (OD on an uncoated plate saturated with BSA) and the ratios are compared with that obtained for the positive control.

Row | Binder | ratio OD on target/OD bdf
1 | B1 | 20.8 ratio
2 | B2 | 2.26 ratio
3 | B3 | 21 ratio
4 | B4 | 14.6 ratio
5 | B5 | 14.6 ratio
6 | B6 | 18.4 ratio
7 | B7 | 16.3 ratio
8 | B8 | 2.86 ratio
9 | B9 | 12.9 ratio
10 | B10 | 2.44 ratio
11 | B11 | 2.29 ratio
12 | B12 | 14.5 ratio
13 | B13 | 2.09 ratio
14 | B14 | 2.53 ratio
15 | B15 | 2.55 ratio
16 | B16 | 2.14 ratio
17 | B17 | 2.66 ratio
18 | B18 | 2.04 ratio

Molecular target: T2, recombinant murine MOG protein
Assay: phage-scFv ELISA on coated recombinant murine MOG (0.5 µg/well), anti-M13 HRP, OD450 over BSA background
Protocol: as §1

Row | Binder | ratio OD on target/OD bdf
19 | B1 | 8.26 ratio
20 | B2 | 2.76 ratio
21 | B3 | 6.48 ratio
22 | B4 | 3.62 ratio
23 | B5 | 4.76 ratio
24 | B6 | 5.59 ratio
25 | B7 | 6.86 ratio
26 | B8 | 2.19 ratio
27 | B9 | 6.66 ratio
28 | B10 | 2.77 ratio
29 | B11 | 2.29 ratio
30 | B12 | 6.61 ratio
31 | B13 | 2.75 ratio
32 | B14 | 2.52 ratio
33 | B15 | 2.78 ratio
34 | B16 | 2.45 ratio
35 | B17 | 5.55 ratio
36 | B18 | 4.01 ratio

Source: patent US20210238281A1 (INSTITUT NATIONAL DE LA SANTE ET DE LA RECHERCHE MEDICALE …, published 2021)
